# Assay results: paper doi:10.1101/2021.01.06.425618
# How the values were obtained:
# [1] = target: venus-PreIQ3-IQ-A1.3 F[-2]A (rat); experiment: FRET or BRET
# [2] = target: venus-PreIQ3-IQ-A1.3 (wild type) (rat) (UniProt P27732); experiment: FRET or BRET
# Sequence of UniProt P27732 (P27732 whole entry): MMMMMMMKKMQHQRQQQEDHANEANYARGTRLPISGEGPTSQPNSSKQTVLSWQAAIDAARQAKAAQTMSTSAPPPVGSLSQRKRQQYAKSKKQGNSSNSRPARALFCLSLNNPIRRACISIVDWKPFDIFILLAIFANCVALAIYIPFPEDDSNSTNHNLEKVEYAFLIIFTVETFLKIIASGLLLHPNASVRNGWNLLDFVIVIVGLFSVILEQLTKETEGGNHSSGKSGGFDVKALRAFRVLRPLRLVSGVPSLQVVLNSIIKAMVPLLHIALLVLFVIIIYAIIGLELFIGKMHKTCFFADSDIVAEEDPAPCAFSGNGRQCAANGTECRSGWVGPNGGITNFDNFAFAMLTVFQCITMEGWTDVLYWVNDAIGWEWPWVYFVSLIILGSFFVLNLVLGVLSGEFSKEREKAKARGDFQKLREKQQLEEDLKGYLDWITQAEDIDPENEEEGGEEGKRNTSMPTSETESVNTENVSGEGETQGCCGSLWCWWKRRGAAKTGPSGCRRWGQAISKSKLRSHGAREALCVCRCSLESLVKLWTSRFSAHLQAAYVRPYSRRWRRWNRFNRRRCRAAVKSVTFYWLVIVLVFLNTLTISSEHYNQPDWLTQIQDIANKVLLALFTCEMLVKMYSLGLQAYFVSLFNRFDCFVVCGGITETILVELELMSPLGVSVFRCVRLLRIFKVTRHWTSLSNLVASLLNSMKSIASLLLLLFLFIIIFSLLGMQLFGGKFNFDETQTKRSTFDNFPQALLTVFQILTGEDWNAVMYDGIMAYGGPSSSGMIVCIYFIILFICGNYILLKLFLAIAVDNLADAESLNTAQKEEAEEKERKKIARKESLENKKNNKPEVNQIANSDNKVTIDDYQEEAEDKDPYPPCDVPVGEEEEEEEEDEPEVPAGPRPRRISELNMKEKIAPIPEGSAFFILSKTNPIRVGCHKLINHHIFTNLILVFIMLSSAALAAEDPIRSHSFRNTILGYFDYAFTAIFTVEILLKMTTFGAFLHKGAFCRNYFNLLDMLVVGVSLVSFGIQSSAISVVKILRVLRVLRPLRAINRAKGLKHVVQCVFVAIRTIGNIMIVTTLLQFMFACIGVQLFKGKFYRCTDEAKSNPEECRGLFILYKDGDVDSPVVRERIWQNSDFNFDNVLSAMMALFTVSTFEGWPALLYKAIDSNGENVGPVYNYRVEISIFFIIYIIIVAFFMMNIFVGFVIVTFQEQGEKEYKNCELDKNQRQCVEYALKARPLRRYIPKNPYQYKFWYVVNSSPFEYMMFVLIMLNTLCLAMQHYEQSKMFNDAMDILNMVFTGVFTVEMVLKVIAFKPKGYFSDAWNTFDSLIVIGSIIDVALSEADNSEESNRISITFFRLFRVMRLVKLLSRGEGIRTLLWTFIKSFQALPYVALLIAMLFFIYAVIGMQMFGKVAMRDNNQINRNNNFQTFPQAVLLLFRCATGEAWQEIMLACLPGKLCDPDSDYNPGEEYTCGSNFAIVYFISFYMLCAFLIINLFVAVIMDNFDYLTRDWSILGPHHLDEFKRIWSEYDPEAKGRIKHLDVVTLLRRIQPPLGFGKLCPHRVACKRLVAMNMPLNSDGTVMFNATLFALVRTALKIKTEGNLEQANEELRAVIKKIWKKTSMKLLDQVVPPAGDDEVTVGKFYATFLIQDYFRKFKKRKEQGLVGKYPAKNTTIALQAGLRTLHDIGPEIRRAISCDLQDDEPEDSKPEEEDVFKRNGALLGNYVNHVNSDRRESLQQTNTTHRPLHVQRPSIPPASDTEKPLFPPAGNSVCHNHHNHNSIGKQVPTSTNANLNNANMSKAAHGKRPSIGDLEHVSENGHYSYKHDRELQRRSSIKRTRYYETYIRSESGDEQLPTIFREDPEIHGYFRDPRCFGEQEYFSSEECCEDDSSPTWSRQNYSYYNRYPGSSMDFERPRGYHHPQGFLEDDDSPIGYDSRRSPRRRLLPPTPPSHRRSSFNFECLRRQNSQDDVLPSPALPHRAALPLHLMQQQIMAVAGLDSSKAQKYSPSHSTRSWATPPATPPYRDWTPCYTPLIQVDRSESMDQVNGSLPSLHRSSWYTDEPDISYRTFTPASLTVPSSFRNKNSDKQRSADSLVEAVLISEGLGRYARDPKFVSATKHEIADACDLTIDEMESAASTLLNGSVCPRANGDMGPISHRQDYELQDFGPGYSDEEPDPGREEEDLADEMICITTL
substance,measurement,setting,value
Cerulean-ICDI1.4 (wild type) (from UniProt O60840 1-1977) (domain or fragment),Ka,[1],5.8e+06 M⁻¹
same,Ka,[2],2.14e+07 M⁻¹
